{"source": "patent US20200010567A1", "about": "(NEURIMMUNE, published 2020)", "binders": {"B1": {"name": "NI-308.46E9 (antibody, V domains shown)", "VH": "QVQLQESGPGLVKPSETLSLTCTVSGASISGSTYYWGWIRQPPGKGLEYIGRIYYSGSTYYNPSLKSRATISVDTSKNQLSLTLSSVTAADTAVYYCVRPFYAGSGNSPFDYWGQGTLVTVSS", "VL": "CEIVLTQSPATVSVSPGERATLSCRASQSVSTNLAWYQQKPGQPPRLLIYGASTRATGIPARFSGSGSGAEFTLTISSLQSEDFVVYYCQQYNNWPPAFGGGTKVEIK", "notes": "Recombinant complete human IgG1, kappa"}, "B2": {"name": "NI-308.28G1 (antibody, V domains shown)", "VH": "QVQLQESGPRLVKPSETLSLTCTVAGGSVNSYYWTWIQQSPGKGLEWLGRIYIAGRTNYNPSLTSRIALSVDTSRNQLSLKLTSVTAADTAIYYCARWGAESGDYYYGVDVWGPGTLVTVSS", "VL": "EIVMTQSPLSLPVTPGEPASISCKSSEGLLHSNGYTYLDWYLQKPGQAPQLLIFLASNRAAGVPDRFSGSGSGTDFTLKISRVEAEDVGVYYCMQAIQSPWTFGPGTKVEIK", "notes": "as for B1"}, "B3": {"name": "NI-308.15O7 (antibody, V domains shown)", "VH": "QVQLVESGGGVVQPGRSLRLSCAASGFTFSNHAMHWVRQAPGKGLEWVAVISYDGENTYYADSIEGRFTISRDNFKNTLFLQMYSLTADDTAMYFCARGGRRGHFTSYYLDYWGQGTLVTVSS", "VL": "CDIQMTQSPSSLSASVGDRVTITCRASQNIDKYLNWYQQIPGKAPKLLIYAASSLHSGVPSRFSGSGSGTDFSLTISSLQPEDFAIYYCQQSYSSFRTFGQGTKLEIK"}, "B4": {"name": "NI-308.18F7 (antibody, V domains shown)", "VH": "QVQLQESGPGLVKPSETLSVTCTVSGGSINDYYWNWIRQPAGKGLEWIGRIYASGTINYNPSLQSRVTMSIDTSKNQFSLDLISVSAADTAVYYCARWGQVVGDYYYGMDVWGQGTTVTVSS", "VL": "EIVLTQSPLSLSVTPGEPASISCKSSQSLQHTNGYNYLDWYLLKPGQSPQLLIFLTSNRASGVPDRFSGSGSGTNFTLKISRVEAEDVGVYYCMEGIQLWTFGQGTKLEIK", "notes": "as for B1"}, "B5": {"name": "NI-308.5G2 (antibody, V domains shown)", "VH": "EVQLVQSGADLRNPGASVTVSCTASGYHFADNAINWLRQAPGQRLEWMGWINIYSGNTKYSQNFQGRVTFTRNTSASTAFMHLRSLRSEDTAVYFCARDPDSSGYYLPYFDYWGQGTLVTVSS", "VL": "DIQLTQSPDSLTLSLGERATINCKSSQSVFYNSNNKNYLAWYQQKPGQPPKLLMYWASTRESGVTDRFSGSGSGTDFTLTITNLQAEDVAVYYCQQFYSSPLTFGGGTKVEIK", "notes": "as for B1"}}, "key": {"GP20: H-(GP)20HHHHHH-NH2": {"molecular_target": "T1, GP20: H-(GP)20HHHHHH-NH2 (C-terminal amide)", "T1 peptide": "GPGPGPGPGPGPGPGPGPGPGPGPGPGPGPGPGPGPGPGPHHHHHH", "assay": "indirect ELISA, coated His-tagged peptide", "outline": "(§1)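 His-tagged dipeptide-repeat peptides coated at 50 μg/ml in carbonate buffer pH 9.42; blocked with 2% BSA in PBS/0.1% Tween-20. Human antibodies titrated, 1 h at room temperature, detected with HRP anti-human IgG Fcγ by colorimetric read-out. EC₅₀ from non-linear regression.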"}, "[1]": {"molecular_target": "T2, BSA-coupled (GR)15 DPR protein peptide (bovine, UniProt P02769 25-607, conjugated via a bifunctional linker (SMCC) to bovine serum albumin)", "T2 construct": "also called BSA-(GR)15", "T2 sequence (peptide, as listed by the source limits assumed, chain 1 of 2)": "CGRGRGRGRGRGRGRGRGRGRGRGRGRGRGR", "T2 sequence (P02769 25-607 limits assumed, chain 2 of 2)": "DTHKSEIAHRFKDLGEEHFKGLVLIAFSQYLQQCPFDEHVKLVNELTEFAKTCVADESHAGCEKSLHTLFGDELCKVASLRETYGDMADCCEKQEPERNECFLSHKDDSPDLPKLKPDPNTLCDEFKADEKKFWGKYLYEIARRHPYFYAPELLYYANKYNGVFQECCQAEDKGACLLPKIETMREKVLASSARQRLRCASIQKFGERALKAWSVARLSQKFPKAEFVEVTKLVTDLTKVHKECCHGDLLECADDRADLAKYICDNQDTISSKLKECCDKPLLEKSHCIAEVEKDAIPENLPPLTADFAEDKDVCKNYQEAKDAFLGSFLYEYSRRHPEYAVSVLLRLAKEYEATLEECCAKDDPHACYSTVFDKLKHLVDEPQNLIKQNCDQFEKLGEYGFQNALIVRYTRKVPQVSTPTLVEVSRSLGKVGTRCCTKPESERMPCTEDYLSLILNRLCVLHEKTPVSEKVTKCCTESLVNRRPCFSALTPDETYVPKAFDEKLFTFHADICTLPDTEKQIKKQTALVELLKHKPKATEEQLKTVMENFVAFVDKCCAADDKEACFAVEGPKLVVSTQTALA", "assay": "Western blot of BSA-coupled peptides", "experimental": "(§2) Resolved proteins were then electroblotted (Novex® Semi-Dry Blotter, 1 h, 25V) on methanol-activated PVDF membranes (Immobilon®-P Transfer Membrane, Merck & Cie, Schaffhausen, Switzerland) by the use of Novex® NuPAGE® transfer buffer 2× (Life Technologies Europe B.V., Zug, Switzerland). Non-specific binding sites were blocked overnight at 4° C. (or alternatively for 1 h at room temperature) with PBS/0.1% Tween®-20 containing 2% BSA (Sigma-Aldrich, Buchs, Switzerland) (PBST). […] Membranes were washed three times in PBST for 15 min at RT and then incubated with a donkey anti-human IgG Fcγ-specific antibody conjugated with HRP (1:20000 or 1:10000 dilution, Jackson ImmunoResearch Laboratories, Inc., West Grove, USA) for 1 h at room temperature. Antibody binding was determined by membrane development using ECL and ImageQuant 350 detection (GE Healthcare, Otelfingen, Switzerland).\n(§3) The binding specificity of the human-derived antibodies to BSA-coupled C9orf72 dipeptide repeat proteins (GA)₁₅, (GP)₁₅, (GR)₁₅, (PA)₁₅ and (PR)₁₅ was determined by Western blot analysis."}, "[2]": {"molecular_target": "T3, BSA-coupled (PA)15 DPR protein peptide (bovine, UniProt P02769 25-607, conjugated via a bifunctional linker (SMCC) to bovine serum albumin)", "T3 construct": "also called BSA-(PA)15", "T3 sequence (peptide, as listed by the source limits assumed, chain 1 of 2)": "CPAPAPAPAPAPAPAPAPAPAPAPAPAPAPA", "T3 sequence (P02769 25-607 limits assumed, chain 2 of 2)": "as the sequence (P02769 25-607 limits assumed, chain 2 of 2) above", "assay": "Western blot of BSA-coupled peptides", "experimental": "as §2, §3"}, "[3]": {"molecular_target": "T4, BSA-coupled (PR)15 DPR protein peptide (bovine, conjugated via a bifunctional linker (SMCC) to bovine serum albumin)", "T4 construct": "also called BSA-(PR)15", "T4 sequence (peptide, as listed by the source limits assumed, chain 1 of 2)": "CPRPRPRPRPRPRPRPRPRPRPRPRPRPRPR", "T4 sequence (P02769 25-607 limits assumed, chain 2 of 2)": "as the sequence (P02769 25-607 limits assumed, chain 2 of 2) above", "assay": "Western blot of BSA-coupled peptides", "experimental": "as §2, §3"}, "GA5: H-(GA)5HHHHHH-NH2": {"molecular_target": "T5, GA5: H-(GA)5HHHHHH-NH2", "T5 peptide": "H-GAGAGAGAGAHHHHHH-NH2", "assay": "indirect ELISA, coated His-tagged peptide", "outline": "as §1"}, "GA6: H-(GA)6HHHHHH-NH2": {"molecular_target": "T6, GA6: H-(GA)6HHHHHH-NH2", "T6 peptide": "H-GAGAGAGAGAGAHHHHHH-NH2", "assay": "indirect ELISA, coated His-tagged peptide; indirect ELISA, peptide coated directly on the plate", "excerpt": "In brief, dipeptide repeat proteins were synthesized and purified by Schafer-N (Copenhagen, Denmark): GA₂₀: H-(GA)₂₀HHHHHH-NH₂; GA₁₀: H-(GA)₁₀HHHHHH-NH₂; GA₆: H-(GA)₆HHHHHH-NH₂; GA₅: H-(GA)₅HHHHHH-NH₂; GA₄: H-(GA)₄HHHHHH-NH₂; GA₃: H-(GA)₃HHHHHH-NH₂; GA₂: H-(GA)₂HHHHHH-NH₂; GP₂₀: H-(GP)₂₀HHHHHH-NH₂; GP₁₀: H-(GP)₁₀HHHHHH-NH₂; GP₆: H-(GP)₆HHHHHH-NH₂; GP₅: H-(GP)₅HHHHHH-NH₂; GP₄: H-(GP)₄HHHHHH-NH₂; GP₃: H-(GP)₃HHHHHH-NH₂; GP₂: H-(GP)₂HHHHHH-NH₂. GR₂₀: H-(GR)₂₀HHHHHH-NH₂; GR₁₀: H-(GR)₁₀HHHHHH-NH₂; GR₆: H-(GR)₆HHHHHH-NH₂; GR₅: H-(GR)₅HHHHHH-NH₂; GR₄: H-(GR)₄HHHHHH-NH₂; GR₃: H-(GR)₃HHHHHH-NH₂; GR₂: H-(GR)₂HHHHHH-NH₂; PA₂₀: H-(PA)₂₀HHHHHH-NH₂; PA₁₀: H-(PA)₁₀HHHHHH-NH₂; PA₆: H-(PA)₆HHHHHH-NH₂; PA₅: H-(PA)₅HHHHHH-NH₂; PA₄: H-(PA)₄HHHHHH-NH₂; PA₃: H-(PA)₃HHHHHH-NH₂; PA₂: H-(PA)₂HHHHHH-NH₂; PR₂₀: H-(PR)₂₀HHHHHH-NH₂; PR₁₀: H-(PR)₁₀HHHHHH-NH₂; PR₆: H-(PR)₆HHHHHH-NH₂; PR₅: H-(PR)₅HHHHHH-NH₂; PR₄: H-(PR)₄HHHHHH-NH₂; PR₃: H-(PR)₃HHHHHH-NH₂; PR₂: H-(PR)₂HHHHHH-NH₂. 96-well microplates (Corning Incorporated, Corning, USA) were coated with dipeptide repeat protein peptides at a concentration of 50 μg/ml in coating buffer (15 mM Na₂CO₃, 35 mM NaHCO₃, pH 9.42). Non-specific binding sites were blocked for 1 h at room temperature with PBS/0.1% Tween®-20 containing 2% BSA (Sigma-Aldrich, Buchs, Switzerland). Primary antibodies were diluted to the indicated concentrations and incubated 1 h at room temperature, followed by incubation with a donkey anti-human IgG Fcγ-specific antibody conjugated with HRP (Jackson ImmunoResearch Laboratories, Inc., West Grove, USA). Binding was determined by measurement of HRP activity in a standard colorimetric assay. EC₅₀ values were estimated by non-linear regression using GraphPad Prism software (San Diego, USA)."}, "[4]": {"molecular_target": "T7, monomeric C9orf72 (GA)20 DPR protein peptide preparation (C-terminal amide)", "T7 construct": "also called monomeric (GA)20", "T7 peptide": "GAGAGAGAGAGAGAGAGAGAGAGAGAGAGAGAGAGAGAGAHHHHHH", "assay": "sandwich ELISA, preparation captured by anti-His antibody", "experimental": "(§4) 96-well microplates (Corning Incorporated, Corning, USA) were coated with monoclonal mouse anti-His tag antibody (Takara Bio Europe/Clontech, Saint-Germain-en-Laye, France) at a concentration of 10 μg/ml in coating buffer (15 mM Na₂CO₃, 35 mM NaHCO₃, pH 9.42) overnight at 4° C. Non-specific binding sites were blocked for 1 h at room temperature with PBS/0.1% Tween®-20 containing 2% BSA (Sigma-Aldrich, Buchs, Switzerland). After a washing step, his-tagged (GA)₂₀ DPR protein peptide preparations at equal concentration of 5 μM in PBS (pH 7.4) were added for target-trapping by the anti-His tag antibody for 1 h at room temperature. […] Antibody binding to DPR protein peptides was detected by a donkey anti-human IgG Fcγ-specific antibody conjugated with HRP at 1:5000 dilution (Jackson ImmunoResearch Laboratories, Inc., West Grove, USA) for 1 h at RT. Binding was determined by measurement of HRP activity in a standard colorimetric assay. EC₅₀ values were estimated by non-linear regression using GraphPad Prism software (San Diego, USA)."}, "[5]": {"molecular_target": "T8, aggregated C9orf72 (GA)20 DPR protein peptide preparation (C-terminal amide)", "T8 construct": "also called aggregated (GA)20; amyloid-fibril like aggregated (GA)20", "T8 peptide": "T7 peptide", "assay": "sandwich ELISA, preparation captured by anti-His antibody", "experimental": "as §4"}}}
{"binder": "B1", "values": [{"measurement": "EC50", "setting": "GP20: H-(GP)20HHHHHH-NH2", "value": 15.5, "unit": "nM"}, {"measurement": "binding result", "setting": "[1]", "value": "no binding"}, {"measurement": "binding result", "setting": "[2]", "value": "no binding"}, {"measurement": "binding result", "setting": "[3]", "value": "no binding"}]}
{"binder": "B2", "values": [{"measurement": "EC50", "setting": "GA5: H-(GA)5HHHHHH-NH2", "value": "> 200", "unit": "nM"}, {"measurement": "EC50", "setting": "GA6: H-(GA)6HHHHHH-NH2", "value": 6.3, "unit": "nM"}]}
{"binder": "B3", "values": [{"measurement": "EC50", "setting": "GA5: H-(GA)5HHHHHH-NH2", "value": "> 150", "unit": "nM"}, {"measurement": "EC50", "setting": "[4]", "value": 6.3, "unit": "nM"}, {"measurement": "EC50", "setting": "[5]", "value": 8.1, "unit": "nM"}, {"measurement": "EC50", "setting": "GA6: H-(GA)6HHHHHH-NH2", "value": 7.9, "unit": "nM"}]}
{"binder": "B4", "values": [{"measurement": "EC50", "setting": "[4]", "value": 0.64, "unit": "nM"}, {"measurement": "EC50", "setting": "[5]", "value": 2.9, "unit": "nM"}]}
{"binder": "B5", "values": [{"measurement": "EC50", "setting": "GP20: H-(GP)20HHHHHH-NH2", "value": 0.47, "unit": "nM"}, {"measurement": "binding result", "setting": "[1]", "value": "no binding"}, {"measurement": "binding result", "setting": "[2]", "value": "no binding"}, {"measurement": "binding result", "setting": "[3]", "value": "no binding"}]}
